Assay results reported in paper PMC5447021, “TNF Lectin-Like Domain Restores Epithelial Sodium Channel Function in Frameshift Mutants Associated with Pseudohypoaldosteronism Type 1B” (Frontiers in Immunology, 2017).
Each block holds one compound with its values, some of them ahead of it.

Experiments:
αβγ-hENaC = target: T1, αβγ-hENaC (Homo sapiens, UniProt P37088+P51168+P51170); experiment: Whole-cell patch clamp, WT αβγ-hENaC; format: cell-based
T1 construct: expressed in transfected cells; host or cells: HEK-293
T1 sequence (P37088 1-669): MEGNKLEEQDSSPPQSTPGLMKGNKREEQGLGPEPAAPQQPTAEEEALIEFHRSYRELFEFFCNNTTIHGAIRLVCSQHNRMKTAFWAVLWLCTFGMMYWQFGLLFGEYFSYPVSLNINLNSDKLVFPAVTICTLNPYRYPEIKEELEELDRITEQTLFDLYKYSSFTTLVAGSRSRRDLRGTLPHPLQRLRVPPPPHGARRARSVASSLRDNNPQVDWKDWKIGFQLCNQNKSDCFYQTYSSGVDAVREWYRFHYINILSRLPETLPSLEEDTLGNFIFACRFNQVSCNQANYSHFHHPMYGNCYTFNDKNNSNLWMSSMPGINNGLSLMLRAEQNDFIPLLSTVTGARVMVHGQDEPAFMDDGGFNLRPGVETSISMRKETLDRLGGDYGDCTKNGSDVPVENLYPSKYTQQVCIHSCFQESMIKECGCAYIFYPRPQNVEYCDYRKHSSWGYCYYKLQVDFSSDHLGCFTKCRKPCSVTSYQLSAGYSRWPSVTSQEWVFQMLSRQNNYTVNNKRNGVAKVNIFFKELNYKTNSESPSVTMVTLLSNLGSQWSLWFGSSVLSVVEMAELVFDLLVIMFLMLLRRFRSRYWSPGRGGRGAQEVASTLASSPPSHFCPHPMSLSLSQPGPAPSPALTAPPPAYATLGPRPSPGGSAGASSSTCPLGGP
T1 sequence (P51168 1-640 partner): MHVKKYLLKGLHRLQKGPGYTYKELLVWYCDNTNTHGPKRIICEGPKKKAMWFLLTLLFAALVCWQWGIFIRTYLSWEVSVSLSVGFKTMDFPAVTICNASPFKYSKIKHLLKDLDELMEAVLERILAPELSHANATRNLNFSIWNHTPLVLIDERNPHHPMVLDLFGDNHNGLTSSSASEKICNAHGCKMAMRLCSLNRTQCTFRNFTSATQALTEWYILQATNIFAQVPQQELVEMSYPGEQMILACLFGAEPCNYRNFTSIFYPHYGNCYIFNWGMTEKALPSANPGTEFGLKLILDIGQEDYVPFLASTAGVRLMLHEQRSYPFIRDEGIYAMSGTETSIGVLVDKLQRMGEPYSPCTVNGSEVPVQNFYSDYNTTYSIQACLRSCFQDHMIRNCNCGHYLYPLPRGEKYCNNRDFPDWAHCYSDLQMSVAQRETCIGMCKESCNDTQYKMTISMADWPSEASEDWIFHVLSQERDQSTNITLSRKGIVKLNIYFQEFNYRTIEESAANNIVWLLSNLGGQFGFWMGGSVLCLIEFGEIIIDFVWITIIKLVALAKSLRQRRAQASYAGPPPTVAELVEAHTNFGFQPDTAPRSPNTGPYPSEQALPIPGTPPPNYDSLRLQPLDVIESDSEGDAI
T1 sequence (P51170 1-649 partner): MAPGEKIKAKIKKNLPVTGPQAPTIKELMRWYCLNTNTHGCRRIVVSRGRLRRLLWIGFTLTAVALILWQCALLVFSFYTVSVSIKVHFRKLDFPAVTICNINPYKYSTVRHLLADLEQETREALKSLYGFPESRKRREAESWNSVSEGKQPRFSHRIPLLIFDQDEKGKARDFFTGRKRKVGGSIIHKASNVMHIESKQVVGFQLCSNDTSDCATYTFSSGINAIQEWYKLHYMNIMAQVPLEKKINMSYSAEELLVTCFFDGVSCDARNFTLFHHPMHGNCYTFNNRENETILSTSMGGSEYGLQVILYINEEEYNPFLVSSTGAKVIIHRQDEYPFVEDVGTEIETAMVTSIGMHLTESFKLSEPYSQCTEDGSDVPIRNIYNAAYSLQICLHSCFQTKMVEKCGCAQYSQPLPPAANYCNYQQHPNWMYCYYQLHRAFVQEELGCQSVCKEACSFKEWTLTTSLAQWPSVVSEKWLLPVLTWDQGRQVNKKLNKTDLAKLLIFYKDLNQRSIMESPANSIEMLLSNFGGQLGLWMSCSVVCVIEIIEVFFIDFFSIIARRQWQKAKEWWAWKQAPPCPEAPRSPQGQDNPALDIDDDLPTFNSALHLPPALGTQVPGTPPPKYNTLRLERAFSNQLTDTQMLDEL
Protocol: Point mutations of α-, β-, γ- and δ-hENaC and PHA1B frameshift mutations of α-hENaC were prepared with the QuikChange Lightning Site-Directed Mutagenesis Kit (Agilent Technologies, CA, USA). Mutagenic primers were designed individually with the Primer Design Program provided on the producer’s website or for the frameshift mutations the same base changes as reported in patients (see Table 2) were performed. Primers were ordered from Sigma-Aldrich, Vienna, Austria.
(§1) HEK-293 cells were transfected 1 day after cell seeding using X-tremeGENE HP DNA transfection reagent (Roche Diagnostics, Mannheim, Germany) according to the manufacturer’s protocol. A set of WT or mutant αβγ- or δβγ-hENaC, or α-, β-, γ-, or δ-hENaC alone was used, and the ratio of DNA to transfection reagent was 1:3. The expression was highest 48–72 h after transfection.
(§2) Electrophysiological experiments were performed as described in detail by Shabbir et al. ([16]). […] Currents were recorded with the patch clamp method in the whole-cell mode. The chamber contained 1 ml of the bath solution of the following composition (in mM): 145 NaCl, 2.7 KCl, 1.8 CaCl2, 2 MgCl2, 5.5 glucose, and 10 HEPES, adjusted to pH 7.4 with 1 M NaOH solution. Micropipettes were pulled from thin-walled borosilicate glass capillaries (Harvard Apparatus, Holliston, MA, USA) with a DMZ Zeitz Puller to obtain electrode resistances ranging from 2 to 5 MΩ. The pipette solution contained (in millimolars): 135 potassium methane sulfonate, 10 KCl, 6 NaCl, 1 Mg2ATP, 2 Na3ATP, 10 HEPES, and 0.5 EGTA, adjusted to pH 7.2 with 1 M KOH solution. Chemicals for pipette and bathing solutions were supplied by Sigma-Aldrich (Vienna, Austria). Electrophysiological measurements were carried out with an Axopatch 200B patch clamp amplifier (Axon Instruments, CA, USA). Capacity transients were canceled, and series resistance was compensated. Whole-cell currents were filtered at 5 kHz and sampled at 10 kHz. Data acquisition and storage were processed directly to a PC equipped with pCLAMP 10.2 software (Axon Instruments, CA, USA). […]

α-hENaC = target: T2, α-hENaC (Homo sapiens, UniProt P37088); experiment: Whole-cell patch clamp, α-hENaC alone; format: cell-based; conditions: TNF, -100 mV, mean ± S.E., n = 5, p < 0.001 vs solnatide
T2 construct: expressed in transfected cells; host or cells: HEK-293
T2 sequence (P37088 1-669): T1 sequence (P37088 1-669)
Protocol: as §1
as §2, with “USA).” for “USA). Capacity transients were canceled, and series resistance was compensated. Whole-cell currents were filtered at 5 kHz and sampled at 10 kHz. Data acquisition and storage were processed directly to a PC equipped with pCLAMP 10.2 software (Axon Instruments, CA, USA).”

β-hENaC = target: T3, β-hENaC (Homo sapiens, UniProt P51168); experiment: Whole-cell patch clamp, β-hENaC alone; format: cell-based; conditions: TNF, mean ± S.E., n = 5
T3 construct: expressed in transfected cells; host or cells: HEK-293
T3 sequence (P51168 1-640): T1 sequence (P51168 1-640 partner)
Protocol: as §1
as §2, with “USA).” for “USA). Capacity transients were canceled, and series resistance was compensated. Whole-cell currents were filtered at 5 kHz and sampled at 10 kHz. Data acquisition and storage were processed directly to a PC equipped with pCLAMP 10.2 software (Axon Instruments, CA, USA).”

δ-hENaC = target: T4, δ-hENaC (Homo sapiens, UniProt P51172); experiment: Whole-cell patch clamp, δ-hENaC alone; format: cell-based; conditions: TNF, mean ± S.E., n = 5, p < 0.001 vs solnatide
T4 construct: expressed in transfected cells; host or cells: HEK-293
T4 sequence (P51172 1-638 isoform P51172-1): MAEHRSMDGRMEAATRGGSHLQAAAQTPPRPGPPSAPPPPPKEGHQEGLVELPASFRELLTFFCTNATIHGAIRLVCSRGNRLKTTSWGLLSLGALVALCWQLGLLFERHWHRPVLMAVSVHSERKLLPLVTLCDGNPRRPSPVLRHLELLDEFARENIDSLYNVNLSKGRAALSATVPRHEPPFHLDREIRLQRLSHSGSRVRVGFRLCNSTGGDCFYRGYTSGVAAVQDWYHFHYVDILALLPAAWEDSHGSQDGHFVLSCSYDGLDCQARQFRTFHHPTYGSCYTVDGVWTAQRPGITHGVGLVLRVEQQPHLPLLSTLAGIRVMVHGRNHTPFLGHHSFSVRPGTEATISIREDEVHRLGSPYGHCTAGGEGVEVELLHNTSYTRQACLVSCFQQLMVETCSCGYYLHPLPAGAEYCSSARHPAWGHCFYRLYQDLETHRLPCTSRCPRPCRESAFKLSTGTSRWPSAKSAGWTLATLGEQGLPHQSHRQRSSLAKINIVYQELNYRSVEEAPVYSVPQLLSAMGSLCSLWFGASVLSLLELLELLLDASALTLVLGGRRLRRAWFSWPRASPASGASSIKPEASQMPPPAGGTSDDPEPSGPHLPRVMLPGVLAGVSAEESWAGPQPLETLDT
Protocol: as §1
as §2, with “USA).” for “USA). Capacity transients were canceled, and series resistance was compensated. Whole-cell currents were filtered at 5 kHz and sampled at 10 kHz. Data acquisition and storage were processed directly to a PC equipped with pCLAMP 10.2 software (Axon Instruments, CA, USA).”

[1] = target: wild-type αβγ-hENaC (amiloride-sensitive epithelial sodium channel) (human) (UniProt P37088)
[2] = target: α-hENaC expressed alone (human) (UniProt P37088)
[3] = target: β-hENaC expressed alone (human) (UniProt P51168)
[4] = target: γ-hENaC expressed alone (human) (UniProt P51170)
[5] = target: δ-hENaC expressed alone (human) (UniProt P51172)
αN232Qβγ-ENaC (human) = αN232Qβγ-ENaC (human) (UniProt P37088)
αN511Qβγ-ENaC (human) = αN511Qβγ-ENaC (human) (UniProt P37088)
αR448fsβγ-ENaC (human) = αR448fsβγ-ENaC (human) (UniProt P37088)

Compound: N=C(N)NC(=O)c1nc(Cl)c(N)nc1N [amiloride, reference compound]
Block of induced current by amiloride (αβγ-hENaC; 10 µM amiloride, TNF- or solnatide-induced current): blocked by 10 µM amiloride within a few pulses

EC50 (αβγ-hENaC; TNF, amiloride-sensitive Na^+ current, αβγ-hENaC in HEK-293, whole-cell, -100 mV, 19–22°C, bath pH 7.4, cumulative addition, mean ± S.E., n = 5, p < 0.001 vs solnatide): 6.7 ± 2.1 nM
EC50 (α-hENaC): 4.2 ± 1.9 nM
EC50 (β-hENaC): 18.8 ± 2.9 nM
EC50 (δ-hENaC): 5 ± 0.3 nM
Compound: TNF: Tumor necrosis factor (CAS Registry Number 94948-59-1, Sigma-Aldrich, Austria)

EC50 of TNF for activating amiloride-sensitive Na+ current, whole-cell patch clamp at -100 mV, transfected HEK-293 cells [1]: 6.7 nM
maximal TNF-induced amiloride-sensitive Na+ current, whole-cell patch clamp at -100 mV, transfected HEK-293 cells [1]: 162 pA
EC50 of TNF for activating amiloride-sensitive Na+ current, whole-cell patch clamp at -100 mV, transfected HEK-293 cells [2]: 4.2 nM
maximal TNF-induced amiloride-sensitive Na+ current, whole-cell patch clamp at -100 mV, transfected HEK-293 cells [2]: 48.1 pA
EC50 of TNF for activating amiloride-sensitive Na+ current, whole-cell patch clamp at -100 mV, transfected HEK-293 cells [3]: 18.8 nM
maximal TNF-induced amiloride-sensitive Na+ current, whole-cell patch clamp at -100 mV, transfected HEK-293 cells [3]: 18.5 pA
maximal TNF-induced amiloride-sensitive Na+ current, whole-cell patch clamp at -100 mV, transfected HEK-293 cells [4]: 8 pA
EC50 of TNF for activating amiloride-sensitive Na+ current, whole-cell patch clamp at -100 mV, transfected HEK-293 cells [5]: 5 nM
maximal TNF-induced amiloride-sensitive Na+ current, whole-cell patch clamp at -100 mV, transfected HEK-293 cells [5]: 27.8 pA
maximal TNF-induced current, whole-cell patch clamp, transfected HEK-293 cells (αN232Qβγ-ENaC (human)): 84.7 pA
maximal TNF-induced current, whole-cell patch clamp, transfected HEK-293 cells (αN511Qβγ-ENaC (human)): 50.7 pA
fold increase of current (TNF-induced/amiloride-sensitive current), whole-cell patch clamp, transfected HEK-293 cells (αR448fsβγ-ENaC (human)): 3.5 fold
Compound: Tumor necrosis factor (TNF) (ligand)
